From publication PMC8931434

B1: CerS2-HA [not stated] / FATP2-Flag [human] (parent)
chain 1: MLQTLYDYFWWERLWLPVNLTWADLEDRDGRVYAKASDLYITLPLALLFLIVRYFFELYVATPLAALLNIKEKTRLRAPPNATLEHFYLTSGKQPKQVEVELLSRQSGLSGRQVERWFRRRRNQDRPSLLKKFREASWRFTFYLIAFIAGMAVIVDKPWFYDMKKVWEGYPIQSTIPSQYWYYMIELSFYWSLLFSIASDVKRKDFKEQIIHHVATIILISFSWFANYIRAGTLIMALHDSSDYLLESAKMFNYAGWKNTCNNIFIVFAIVFIITRLVILPFWILHCTLVYPLELYPAFFGYYFFNSMMGVLQLLHIFWAYLILRMAHKFITGKLVEDERSDREETESSEGEEAAAGGGAKSRPLANGHPILNNNHRKND
chain 2: not shown

Variants of: B1
Assay: co-immunoprecipitation (anti-HA IP, anti-Flag western blot, quantified)
Conditions: with FATP2-Flag [human]; CerS2-/- Hek293T cells, 48 h after transfection; three independent experiments; read off a plot

response | Variant
6.2 | chain 1 S341A T346A S348A S349A
1.4 | chain 1 H212A H213A
